Assay: yeast display, Sf9 membrane polyspecificity reagent, FACS + sequencing; frameworks hold sequencing errors
How it was run: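 Nanobodies from a synthetic yeast display library (Saccharomyces cerevisiae BJ5465), induced 36–48 hours with galactose, were stained 1 hour at 4 °C with 10% biotinylated, detergent-solubilized Sf9 membrane reagent, enriched on streptavidin microbeads, then FACS-sorted. Anti-HA (expression) and streptavidin (reagent binding) fluorescence set low and high (top ~1%) gates. Polyreactivity labels come from the gate of origin. Genes were colony-PCR amplified, MiSeq 2 × 250 sequenced and filtered by CDR length.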

Sequence: QVQLVESGGGLVQPGGSLRLSCAASGIIFGSYAMGWYRQAPGKERELFAAITKSGGSTFYADSVKGRYTISRDNAKNTVYLQMNSLKPEDTAVYYCTAVKYRYLEYNYWGQGTQVTVSS
- polyreactivity (PSR sort gate): high polyreactivity

Sequence: QVQLVESGGGLVQAGGSLRLSCAASGRTFYRYAMGWYRQAPGKEREYVASITRGGGITYYADSVKGRFTISRDNAKNTVYLQMNSLKPEDSAVYYCAARQYGPRYTFYYWGQGTQVTVSS
- polyreactivity (PSR sort gate): high polyreactivity

Sequence: QVQLVESGGGLVQAGGSLRLSCAASGRIGAYAMGWYRQAPGKERELVAAIRWSTGSTYYADSVKGRFTISRDNAKNTVFLQMNSLKPEDTAVYYCAAEFVRRGGDFWGQGTQVTVSS
- polyreactivity (PSR sort gate): high polyreactivity

Sequence: QVQLVESRGRLVQAGGSLRLSCAASGSIFGTYAMGWYRHAPGKERELVAAISWSDGSTYYADSVKGRFTISRDNAKYTVYLQMNSLKPEATEVYFCSKVYRSIGANVSRYGLSYYYWGQGTQVTVSS
- polyreactivity (PSR sort gate): low polyreactivity

Sequence: QVQLVESGGGLVQAGGSLRLSCAASGRTSWYYAMGWYRQAPGNERELVATITRSTGSTYYADSVKGRFTISRDNAKNTVYLQMNCLKPEDTAVYDCARLYYFNGDYWGQGTQVTVSS
- polyreactivity (PSR sort gate): high polyreactivity

Sequence: QVQIVESGGGLVQAGGSLRLSCAASGSIFYYYAMGWYRQAPGNERELVADISISGGSTYYADSVKGRFTISRDTAKNTVYLQMNSQKPEDTAVYYSAATSTYRSYLEYDYWGQGTQVTVSS
- polyreactivity (PSR sort gate): low polyreactivity

Sequence: QVQLVESGGGLVQAGGSLRLSCAASGSTFARNAMGWFRQAPGKEREFVASIRWGRGTTYYADSVKGRFTNSRDNAKNTLYLQLNSMIPEDSAVYYCATRNSSKRRGYYYWGQGTQVNVSS
- polyreactivity (PSR sort gate): high polyreactivity

Sequence: QVQLVESGGGLVQAGGSLRLSCAASGRIFVRYAMGWYRQAPGKERELVAAISWSAGSTYYADSVKGRFTISRDNAKNTVYLQMNSLKPEDTAVYYCAAEYGNYETGHYGIYDYWGQGTQVTVSS
- polyreactivity (PSR sort gate): low polyreactivity

Sequence: QVQLVESGVGLVQAGGSLRLSCAASGSTIQYYAQGRYRQAPGKEREFVAAISISGGSTYYADSLKGRFTISRDNAKNTVYLQMNSLIPEDSEVYYCAARKKEYKPGKYWGQGTQVTVSS
- polyreactivity (PSR sort gate): low polyreactivity

Sequence: QVQLVESGGGLVQAGGSLRLSCAASGLIFVKNTMGWYRQAPGKERELVAGISQRGGSTYYADSVKGRFTISRDNAKNSVYLQMNILKPEDTAVFYCAAYSRTFEGHRGGYWGQGTQVTVSS
- polyreactivity (PSR sort gate): high polyreactivity

Sequence: QVQLVDSGGGLVQAGGSLRLSCAASGSTFKYYAMGWYRQAPGKERELVAAISGRGGRTYYADSVKGRFTISRDHAKNTVYLQMNSLKPEDTAVYYCNAPFLGAHHYGYEYWGQGTQVTVSS
- polyreactivity (PSR sort gate): high polyreactivity

Sequence: QVQLVESGGGLVQAGGSLRLSCAASGRIFYINAMGWYRQAPGKEMELVAAITGSVGSTYYADSVKGRFTISRDNAKNTVYLLMNSQKPEDTAVYYCAASDQPYNGGDGDYWGQGTQVTVSS
- polyreactivity (PSR sort gate): low polyreactivity

Sequence: QVQLVESGGGLVQAGGSLRLSSDASGFIFSFNALGWYRQAPGKERELVAAISRSGGSTRYADSVKGRFTISRDNAKNTVYLQMNSLKPEDTAVYYCANRFASYRYHPGYDYWGQGTQVTVSS
- polyreactivity (PSR sort gate): high polyreactivity

Sequence: QVQLVESGGGLVQAGGSLRLSCAASGRIFIRNAMGWYRQAPGKERELVAAITQSGGSTYYADSVKGRFTISRDNAKNTVYLQMNSLKPEDTAVYYCAADGDNPYLHEEDYWGQGTQVTVSS
- polyreactivity (PSR sort gate): high polyreactivity

Sequence: QVQLVESGGGLVQAGGSLRLSCAASGITFFPYAMGWYRQAPGKERELVASISDGGGTNYAASVKGRFTISRDNAKNTVYLQMNSLKPEDTAVYYCATDASTYAYYGGDYWGQGTQVTVSS
- polyreactivity (PSR sort gate): low polyreactivity

Sequence: QVQLVESGGGLVQSGGSLRLSCAASGLIFYDNMGWYIQAPGKERELVAAISSSGGSTSYADSVKGRFTISRDNAKNTVYLQMNSLKPEDTAVYYCAADSYPAYLGFVGFDYWGQGTQVTVSS
- polyreactivity (PSR sort gate): low polyreactivity

Sequence: QVQLVESGGGLVQAGGSLRLSCAASGRIFGAYAMGWYRQAPGKERELVADIRSTGSTNYADSVKGRFTISRDNAKNTVYLQMNSLKPEDTAVYYCAARWRSRRFGSGFEYWGQGTQVTVSS
- polyreactivity (PSR sort gate): high polyreactivity

Sequence: QVQLVESGGGLVQAGGSLRLICAASGFIITGNAMGWYRQAPGKERELVAAITSGGNTYYADSVKGRFTISRDNAKNTVYLQMISMKPEDTAVYYCAKYGPHWRILMEYWGQGTQVTVSS
- polyreactivity (PSR sort gate): low polyreactivity

Sequence: QVQLVESGGGLVQAGGSLRLSCAASGRTFWTNAMGWYRQAPGKERELVAAISWTTGSTNYADSVKGRFTISRDNAKNTVYLQMNSLKPEDTAVYYCAAQTYCTFHTYYYWGQGTQVTVSS
- polyreactivity (PSR sort gate): low polyreactivity

Sequence: QVQLVESGGGLVQAGGSLRLSSPDSGYIFLPYTMGWYRQAHGKERELVASITWRGTNTYYADSVKGRFTISRDNAKNTVYLQMNSLKPEDTAGYYCTKVPTYWDPNYYYWGQGTQVTVSS
- polyreactivity (PSR sort gate): high polyreactivity

Sequence: QVQLVESGGGLVQAGGSLRLSCAASGNIFWGNAMGWYRQAPGKERELVAAITSIDSSTYYADSVKGRFTISRDNAKNTVYLQMNSLKPEDTAVYYCAADGDWYGYIWQSDDGYDSWGQGTQVTVSS
- polyreactivity (PSR sort gate): low polyreactivity

Sequence: QVQLVESGGGLVQAGGSLRLSCAASGSIFGSYAMGWYRQAPGKERELVAVITSASTNYADSVKGRFTISRDNAKNTVYLQMNSLKPEDTAVYYCNAALSHDFWNYRLGYWGQGTQVTVSS
- polyreactivity (PSR sort gate): low polyreactivity

Sequence: QVHRVESGGGLVQAGASLRLSCAASGIIFDTYAMGCYRQAPGKEREIVAAITWNGGSTYYADSVKGRFTISRDNAKNPVYLQMNSLKPEDTPVYYCAKLPRTLTEYGYKGYYWGQGTQVTVSS
- polyreactivity (PSR sort gate): low polyreactivity

Sequence: QVQLVESGGGLVQAGGSLRLSCAASGIIFSSNAMGWYRQAPGKERELVAAISRRGGSTSYADSVKGRFTISRDNAKNTVYLQINSLKPEDTAVYYCAARYVYPGEDYWGQGTQVTVSS
- polyreactivity (PSR sort gate): high polyreactivity

Sequence: QLQLVQSGGGLVQAGGSLRLSCAASGITSPYAMGWYRQAPGKERELVARNSKGGGSTYYADSVKGRFTISRDNAKNTVYLQMNSLKPEDTAVYYCAADWYNRSRPRYYTRYYYWGQGTQVTVSS
- polyreactivity (PSR sort gate): high polyreactivity

Sequence: QVQLVESGGGLVQAGGSLRLSCAASGFILYDYAMGWYRQAPGKEREFVAAISWSGGRTYYADSVKGRFTISRDNAKNTVYLLLNSLNPEASAVYYCAVDAYRYWWTTYVSDFDYWGQGTQLTVSS
- polyreactivity (PSR sort gate): high polyreactivity

Sequence: QVQLVESGGGLVQAGGSLRLSCAASGSIFDSNAMGWYRQAPGKETELVASITSDGDTYYADSVKGRFTISRDNAKNTVYLQIKSVKPEDTAVYYCAAYVPYSGLDYWGQGTQVTVSS
- polyreactivity (PSR sort gate): low polyreactivity

Sequence: QVQLVESGGGLVQAGGSLRLSCAASGSTFASNVMGWYRQAPGKERELVAAITRGDRTHYADSVKGRFTISRDNAKNTVYLQMNSLKPEDTAVYYCAARFIFWVYDYDYWGQGSQVTVSS
- polyreactivity (PSR sort gate): low polyreactivity

Sequence: QVQLVESGGGLVQAGGSLRLSCAASGRTFGRYVMGWYRQAPGKERQLVARIRGSTTSTYYADSVKGRFTISRDNAKNTVYLQMNSLKPEDTAVYYCAASYSPFASSYGYDYWGQGTQVTVSS
- polyreactivity (PSR sort gate): high polyreactivity

Sequence: QVQLVESGGGIVQAGGSLRLSCAASGSTFRYYARGWSRQAPGKERELVATITCNAAGTYYADSVKGRFTISRDNAKNTVYLQMNSLKPEDTAVYYCAAAPWEWYHYGYYYWGQGTQVTVSS
- polyreactivity (PSR sort gate): low polyreactivity

Sequence: QVQLVESGGGLVQAGGSLRLSCAASGVTFRLDAMGCYRQAPGKDRELVAAISRSGTSTYYADSVKGRFTISRDNPKNTVYLHMNTRKPDDTAVYYCNTARYRYAWYTRYVSWGQGTQVTVSS
- polyreactivity (PSR sort gate): high polyreactivity

Sequence: QVQLVESGGGLVQAGGSLRLSCAASGSTFHVNAMGWYRQAPGKEREFVAAISWRTGSTYYADSVKGRFTISRDNAKNTVYLQRHSLKPEDTAVYYCAAKRSYSNYDYWGQGTQVTVSS
- polyreactivity (PSR sort gate): high polyreactivity

Sequence: QVQLVESGGGLVQAGGSLRLSCAASGLTFAWYTMGWYRQAPGKERELVADIDQSGSTYYADSVKGRFTISRDNAKNTVYLQMNSLKPEDTAVYYCNAYWSNFLYPFDYWGQGTQVTVSS
- polyreactivity (PSR sort gate): high polyreactivity

Sequence: QVQLVESGGGLVQAGGSLRLSCAASGSIFKQNAMGWYRQAPGKDRELVASIRASGDRTYYADSVKGRFTISRDNAKNTVYLQMNSLKPEDTAVYYCAARRVRTRGYNYWGQGTQVTVSS
- polyreactivity (PSR sort gate): high polyreactivity

Sequence: QVQLVESGGGLVQAGGSHRLSCSASGQTFVKNAMGWYRQAPGKERELVAAITVSGSRTYYADSVKGRFTISRDNAKNTVYLQMNSLKPEDTAVYYCAAKTADRFAPYYYWGQGTQVTVSS
- polyreactivity (PSR sort gate): high polyreactivity

Sequence: QVLLQESGGGLVQAGGSLRLSCASSGTISTDIRMGWYRLAPGKEREFVASIDGCSTTYYADSVKGRFSISRDNAKNTVYLQMNSLKPEDTSMYYCAAREATEFYLYYWGQGTQVTVSS
- polyreactivity (PSR sort gate): low polyreactivity

Sequence: QVQLVESGGGLVQAGGSLRLSCAASGSTFGANAMGWYRQAPGKEREFVAAISRSGVRTYYADSVKGRFTISRDNAKNTVYLKLNSLKPEDTAVYYCAADGYWWTYTRYDYWGQGTQVTVSS
- polyreactivity (PSR sort gate): low polyreactivity

Sequence: QVQLVESGGGLVQAGGSLRLSCAASGFIFPWYAMGWYRQAPGKERELVAAISESGGGTYYADSVKGRFTISRDYAKNTVYLQMNSLKPEDTAVYYCNKAPRYPYGGYDYWGQGTQVTVSS
- polyreactivity (PSR sort gate): low polyreactivity

Sequence: QLQLVESGGGLVQAGGSLRLSCAASGRTFIHYAMGWYRQAPGKERELVAAISDDASSTYYADSVKGRFTISRDNAKNTVYLQMNSLKPEDTAVYYCNVELAKVGGVEYDYWGQGTLVTVSS
- polyreactivity (PSR sort gate): low polyreactivity

Sequence: QVQLVESGGGLFQAGGSLRLSCAASGFTFGYYAMGWYRQAPGKERELVASISITAGSTYYADSVKGRFTISRDNAKNTVYLQMNSLKPEDTAVYYCAAKRRTRQSYYTEYYWGQGTQVTVSS
- polyreactivity (PSR sort gate): high polyreactivity

Sequence: QVQLVESGGGLVQAGGSLRLSCAASGLTFYSNAMGWYIQAPGKERELVASISKRGATTYYADSVKGRFTISRDIAKYTVYLQMNSQKAEDTAVYYCAAEYLRNQELGYQGVAILYVFWGQGTQVTVSS
- polyreactivity (PSR sort gate): low polyreactivity

Sequence: QVQLVESGGGLVQPGGSLRLSCAASGSTFEYNAMGWYRQAPGKERELVASSTNYADSVKGRFTISRDNAKNTVYLQMNSLKPEDTAVYYCAREQGVNRNHDYWGQGTQVTVSS
- polyreactivity (PSR sort gate): low polyreactivity

Sequence: QVQLVESGGGLVQAGGSLRLSCAASGLTFPTYAMGWYRQAPGKERELVAAISRIGGRTYYADSVKGRFTISRDNAKNTFYLQMNSLKPEDTAVYYCAADVIKGCVEYDYWGQGTKVTVSS
- polyreactivity (PSR sort gate): high polyreactivity
